# ± gives the uncertainty stated by the source.
# Experiment: protein stability index of a GFP-peptide fusion (yeast GPS) (PSI 1-4); higher = more stable; sorted into four equal gates, so the index is relative within each strain
# Procedure, shortened: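 For each peptide, the protein stability index sums the read frequency in every gate after multiplying it by the gate number. Read frequencies came from plasmids that were PCR-amplified from each gate and Illumina-sequenced, with reads assigned to strains by barcodes. The gates were four equal bins of GFP/Cherry fluorescence ratio applied to mid-log yeast in leucine-free medium carrying a pooled library of tiled 17-residue yeast protein peptides fused downstream of GFP on a Cherry-expressing plasmid.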
Sequence,protein stability index (doa10∆),protein stability index (pdr5∆),protein stability index (san1∆),protein stability index (ubr1∆)
AFLSKVPEFFQTANEKH [SRP14],3.21 ± 0.12,3.21 ± 0.17,3.37 ± 0.11,3.09 ± 0.26
NLLPKKSAKTAKASQEL [HTA2],2.92 ± 0.092,3.05 ± 0.12,2.87 ± 0.11,3.18 ± 0.048
VQNSTLAQLTSKLIPEV [RPS1B],2.19 ± 0.084,2.73 ± 0.062,2.27 ± 0.12,2.55 ± 0.047
NTILNSSSDFRLHYYPK [BRR2],2.75 ± 0.054,3.17 ± 0.067,2.81 ± 0.048,3.11 ± 0.042
GGDSDANGTFMDFGVDP [RPN10],–,–,3.23 ± 0.13,2.96 ± 0.25
DLAERASELDESKDSIQ [SMC3],3.06 ± 0.093,3.1 ± 0.09,2.83 ± 0.17,3.17 ± 0.06
YKRQKSSLLYTYDENDD [ESC2],1.25 ± 0.059,1.42 ± 0.07,1.17 ± 0.11,1.21 ± 0.06
WKTAEEVSALVRSLPKE [PRP8],1.21 ± 0.068,1.36 ± 0.079,1.28 ± 0.12,1.08 ± 0.051
DTAPKPNIVEIDLDNDE [DLS1],3.27 ± 0.082,3.4 ± 0.058,3.03 ± 0.079,3.27 ± 0.091
DFREKALYIAMMTRRVV [RET1],1.18 ± 0.077,1.58 ± 0.12,–,1.37 ± 0.074
SIIGNKNNNYTWEECVF [REC8],2.78 ± 0.15,2.62 ± 0.23,2.73 ± 0.085,2.43 ± 0.11
RALSIFSPDGHIFQVEY [PRE6],2.97 ± 0.051,2.98 ± 0.05,3.04 ± 0.032,3.1 ± 0.032
GGRMFAPTKTWRKWNVK [RPL4A],2.87 ± 0.12,2.88 ± 0.11,3.07 ± 0.065,2.16 ± 0.056
FRYITTWENEFLDSQRV [PRP8],2.77 ± 0.065,2.69 ± 0.059,2.48 ± 0.061,3.03 ± 0.046
GLLDESPNRLRVRTDDS [YML031W/NDC1],1.5 ± 0.098,1.82 ± 0.15,1.67 ± 0.12,1.64 ± 0.051
SDVSDFEGWGHEYIRHL [RPN1],3.07 ± 0.15,3.09 ± 0.14,3.17 ± 0.14,3.37 ± 0.15
KREASRGFFDILSLATE [MCD1],3.08 ± 0.083,3.21 ± 0.06,2.91 ± 0.063,3.11 ± 0.05
VKHSPGAIKPFTPKLIY [ECM29],3.16 ± 0.089,–,2.87 ± 0.19,2.93 ± 0.1
FNRALDQSISKLQSWDK [NNF1],1.63 ± 0.066,1.49 ± 0.068,1.51 ± 0.085,1.78 ± 0.051
SHTDQPANVLLVQSLND [NNF1],2.07 ± 0.071,2.16 ± 0.083,2.23 ± 0.18,2.7 ± 0.09
VTPIIDGIVVKNAVVRS [ARP7],1.51 ± 0.074,1.92 ± 0.082,1.61 ± 0.13,1.74 ± 0.16
ESSNEAKKTIQNPLNKS [SIR4],3.12 ± 0.071,2.76 ± 0.059,2.95 ± 0.047,3.11 ± 0.05
IYAKQQEQLKQMDQQLQ [ARP7],1.76 ± 0.066,2.05 ± 0.079,2.2 ± 0.1,2.7 ± 0.072
LGITGLATDVTTLNEMF [PUP3],2.2 ± 0.16,2.39 ± 0.11,2.24 ± 0.16,2.27 ± 0.11
SSPDTMKLTDLLSLINS [SNF12],2.69 ± 0.042,2.73 ± 0.039,2.81 ± 0.047,2.67 ± 0.036
LIKFVDLSRNGRNGSNG [NUT1],3.08 ± 0.074,3.2 ± 0.099,3.15 ± 0.068,3.2 ± 0.069
LKLNHIIANINSFTKGN [SNU114],1.52 ± 0.059,2.15 ± 0.062,1.83 ± 0.054,1.84 ± 0.035
